The source of these data is publication PMC8161381.

For assay [1], the target named is Ixodes ricinus cathepsin B, native in gut tissue extract (Ixodes ricinus (endogenous in gut tissue)).
In assay [2] the target is Ixodes ricinus cathepsin C, native in gut tissue extract (Ixodes ricinus (endogenous in gut tissue)).
Assay [3] addresses Ixodes ricinus cathepsin L1 (Ixodes ricinus).
For assay [4], the target named is Ixodes ricinus cathepsin L3 (Ixodes ricinus).
Assay [5] addresses cathepsin L-like activity of I. ricinus gut tissue extract (Ixodes ricinus (endogenous in gut tissue)).
In assay [6] the target is cathepsins L and B activity of I. ricinus gut tissue extract (Ixodes ricinus (endogenous in gut tissue)).
Assay [7] concerns the target human cathepsin B (human).
The target of assay [8] is human cathepsin C (human).
Assay [9] addresses T1, human cathepsin H (human).
T1 sequence (P09668 116-335, looked up): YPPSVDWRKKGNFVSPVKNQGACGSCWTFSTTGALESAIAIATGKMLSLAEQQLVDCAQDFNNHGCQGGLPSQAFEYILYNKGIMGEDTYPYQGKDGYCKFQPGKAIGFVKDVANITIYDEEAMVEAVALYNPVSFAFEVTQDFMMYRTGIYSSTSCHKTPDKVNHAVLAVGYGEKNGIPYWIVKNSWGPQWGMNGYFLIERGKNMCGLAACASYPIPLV

The target in assay [10] is T2, human cathepsin K (human) (UniProt P43235).
T2 sequence: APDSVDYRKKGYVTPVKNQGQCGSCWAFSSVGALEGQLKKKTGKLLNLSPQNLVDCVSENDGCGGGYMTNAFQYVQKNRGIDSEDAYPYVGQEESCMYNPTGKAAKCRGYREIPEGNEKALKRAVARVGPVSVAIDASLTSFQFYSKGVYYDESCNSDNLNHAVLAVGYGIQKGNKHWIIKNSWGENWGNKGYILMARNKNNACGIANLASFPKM

Assay [11] deals with human cathepsin L (human).
Assay [12] concerns the target human cathepsin S (human) (UniProt P25774).

Sequence of human cathepsin C (human) (P53634 25-463): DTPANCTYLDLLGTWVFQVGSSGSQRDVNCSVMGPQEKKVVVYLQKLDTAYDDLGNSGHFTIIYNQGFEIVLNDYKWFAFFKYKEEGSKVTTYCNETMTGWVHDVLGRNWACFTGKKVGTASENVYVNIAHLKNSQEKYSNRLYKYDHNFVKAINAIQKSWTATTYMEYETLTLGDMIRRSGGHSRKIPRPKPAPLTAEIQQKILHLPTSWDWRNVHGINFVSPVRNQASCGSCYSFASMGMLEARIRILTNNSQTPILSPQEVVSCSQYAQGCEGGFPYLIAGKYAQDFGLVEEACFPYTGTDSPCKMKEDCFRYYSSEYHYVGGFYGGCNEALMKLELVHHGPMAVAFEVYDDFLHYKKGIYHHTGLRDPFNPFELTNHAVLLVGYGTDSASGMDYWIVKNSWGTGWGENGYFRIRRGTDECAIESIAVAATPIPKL
Sequence of human cathepsin L (human) (P07711 18-333): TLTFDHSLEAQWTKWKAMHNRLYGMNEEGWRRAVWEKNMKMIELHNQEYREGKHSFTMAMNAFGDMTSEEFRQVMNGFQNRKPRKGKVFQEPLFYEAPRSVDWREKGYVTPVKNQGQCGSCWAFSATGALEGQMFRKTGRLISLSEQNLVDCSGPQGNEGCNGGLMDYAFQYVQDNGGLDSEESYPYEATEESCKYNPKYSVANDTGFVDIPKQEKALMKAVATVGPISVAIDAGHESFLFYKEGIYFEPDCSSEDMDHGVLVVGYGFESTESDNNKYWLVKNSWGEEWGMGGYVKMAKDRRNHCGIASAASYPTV
Sequence of human cathepsin S (human) (P25774 115-331): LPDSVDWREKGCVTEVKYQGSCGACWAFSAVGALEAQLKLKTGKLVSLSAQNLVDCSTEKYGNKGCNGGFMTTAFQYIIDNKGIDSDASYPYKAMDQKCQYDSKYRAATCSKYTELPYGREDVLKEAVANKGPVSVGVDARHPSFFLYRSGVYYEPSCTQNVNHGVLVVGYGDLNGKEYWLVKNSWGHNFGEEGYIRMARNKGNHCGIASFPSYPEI

B1: mialostatin (natural protein)
chain: GSASRSKRALVGGWKTQDPTNPKFENLAHYAVSTQVEGREYYDTVLELLEVQTQIVAGVNYKLKFTTTQSTCKIETGVEYSKELCQPKTNKVEAVCTSIIYTVPWQNIKRVLSYHCDAPNDV
Consider B1, for which, in [1], the IC50 of inhibition of cathepsin B activity in gut tissue extract (kinetic assay, Z-Arg-Arg-AMC, pH 6.5, with Z-Phe-Phe-DMK, 37 °C) was 12.1 nM. Further, in [2], the IC50 of inhibition of cathepsin C activity in gut tissue extract (kinetic assay, Gly-Arg-AMC, pH 5.5, with E-64, 37 °C) stood at 91.7 nM. The IC50 of inhibition of protease activity (kinetic assay, 0.1 nM IrCL1, Z-Phe-Arg-AMC, pH 4.5, 37 °C) in assay [3] stood at 71 pM. Besides, the IC50 of inhibition of protease activity (kinetic assay, 20 pM IrCL3, Z-Phe-Arg-AMC, pH 4.5, 37 °C) in assay [4] worked out at 0.39 nM. The same molecule had an IC50 of inhibition of cathepsin L activity in gut tissue extract (kinetic assay, Z-Phe-Arg-AMC, pH 4.5, with CA-074, 37 °C) in assay [5] of 0.18 nM. Moreover, the IC50 of inhibition of cathepsins L and B activity in gut tissue extract (kinetic assay, Z-Phe-Arg-AMC, pH 5.0, 37 °C) in [6] came to 3.1 nM. Besides, in [7], the IC50 of inhibition of protease activity (kinetic assay, 35 pM cathepsin B, Z-Leu-Arg-AMC, pH 5.5, 37 °C) was 9 nM. This molecule had an IC50 of inhibition of protease activity (kinetic assay, 0.5 nM cathepsin C, Gly-Arg-AMC, pH 5.5, 37 °C) in assay [8] of 2.1 nM. In [9], this molecule returned an IC50 of inhibition of protease activity (kinetic assay, 20 nM cathepsin H, Z-Leu-Arg-AMC, pH 6.8, 37 °C) of 24 nM. Besides, the IC50 of inhibition of protease activity (kinetic assay, 5 nM cathepsin K, Z-Leu-Arg-AMC, pH 5.5, 37 °C) in assay [10] was found to be 9.7 nM. The same molecule returned an IC50 of inhibition of protease activity (kinetic assay, 33 pM cathepsin L, Z-Leu-Arg-AMC, pH 5.5, 37 °C) in [11] of 0.38 nM. Moreover, the IC50 of inhibition of protease activity (kinetic assay, 350 pM cathepsin S, Z-Val-Val-Arg-AMC, pH 5.5, 37 °C) in assay [12] worked out at 2.2 nM.
